In the supplement of paper PMC6757056:
± gives the standard deviation of the averaged measurements.

B1: library; a variant is named by its letters at N, in order (parent)
chain: GCUGUCACCGGUGCUUGGUACGUUAUAUUCAGCCGGUCUGAUGAGUCUNNNNNNAGACGAAACAGC

How the values were obtained:
(6R,S)-folinic acid [1] = variants of: B1; experiment: FACS-Seq fitted mean relative fluorescence mCherry/BFP without ligand (log10 relative fluorescence); HEK293T overexpressing SLC46A1; higher = higher reporter protein expression; details: without (6R,S)-folinic acid; ligand present: no
Method in brief: (§1)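 An mCherry reporter containing the ribozyme switch and an EF1α-BFP marker were introduced by lentivirus into HEK293T libraries. Cells were enriched, incubated 48 h with or without ligand, sorted into 6 bins by mCherry/BFP, and bin genomic DNA was PCR-amplified, barcoded and sequenced on MiSeq. Fluorescence represents the normalized fitted normal mean of the bin counts. Fitting was done on log10(mCherry/BFP), scaling to five spiked-in control ribozymes.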

(6R,S)-folinic acid [2] = variants of: B1; experiment: normalized RNA/DNA level without ligand (relative to sTRSVctl = 100) (log10 (% of sTRSVctl)); HEK293T overexpressing SLC46A1; higher = less ribozyme self-cleavage, higher mRNA level; details: without (6R,S)-folinic acid; ligand present: no
Description: (§2)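 Hammerhead (sTRSV) ribozyme switch libraries with a ligand aptamer grafted on stem I and a randomized N4-6 loop II, cloned into the 3' UTR of mCherry and transiently transfected into HEK293T cells; RNA-Seq 72 h post transfection with ligand added 1 h before transfection; RNA read count / plasmid DNA read count normalized to the non-cleaving sTRSVctl (x100), log10; sequences with >100 DNA reads. FACS-Seq: lentiviral library sorted into 6 bins after 48 h ligand, log-normal fit mean of mCherry/BFP scaled to controls. Printed sequences are partial switch sequences.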

(6R,S)-folinic acid [3] = variants of: B1; experiment: FACS-Seq fitted mean relative fluorescence mCherry/BFP with ligand (log10 relative fluorescence); HEK293T overexpressing SLC46A1; ligand concentration (+) FACS-Seq: 6 mM; higher = higher reporter protein expression; details: with (6R,S)-folinic acid; ligand present: yes
Method in brief: as §1

(6R,S)-folinic acid [4] = variants of: B1; experiment: normalized RNA/DNA level with ligand (relative to sTRSVctl = 100) (log10 (% of sTRSVctl)); HEK293T overexpressing SLC46A1; ligand concentration (+) RNA-Seq: 6 mM; higher = less ribozyme self-cleavage, higher mRNA level; details: with (6R,S)-folinic acid; ligand present: yes
Description: as §2

Variant | FACS-Seq fitted mean (log10) ((6R,S)-folinic acid [1]) | normalized RNA/DNA level without ligand (log10) ((6R,S)-folinic acid [2]) | FACS-Seq fitted mean (log10) ((6R,S)-folinic acid [3]) | normalized RNA/DNA level with ligand (log10) ((6R,S)-folinic acid [4])
GCUGUCACCGGUGCUUGGUACGUUAUAUUCAGCCGGUCUGAUGAGUCUGAAUGAAGACGAAACAGC [GAAUGA] | 0.25 ± 0.057 | 1.992 ± 0.0057 | 0.299 ± 0.2 | 2.02 ± 0.022
GCUGUCACCGGUGCUUGGUACGUUAUAUUCAGCCGGUCUGAUGAGUCUUAAUGAAGACGAAACAGC [UAAUGA] | 0.29 ± 0.014 | 1.872 ± 0.006 | 0.227 ± 0.042 | 2 ± 0.022
GCUGUCACCGGUGCUUGGUACGUUAUAUUCAGCCGGUCUGAUGAGUCUAAAUGAAGACGAAACAGC [AAAUGA] | 0.485 ± 0.018 | 1.963 ± 0.005 | 0.406 ± 0.022 | 2.04 ± 0.044
GCUGUCACCGGUGCUUGGUACGUUAUAUUCAGCCGGUCUGAUGAGUCUUAAUGCAGACGAAACAGC [UAAUGC] | 0.147 ± 0.059 | 1.946 ± 0.017 | 0.234 ± 0.13 | 1.98 ± 0.032
GCUGUCACCGGUGCUUGGUACGUUAUAUUCAGCCGGUCUGAUGAGUCUAAAUGCAGACGAAACAGC [AAAUGC] | 0.594 ± 0.028 | 2.03 ± 0.007 | 0.713 ± 0.3 | 2.03 ± 0.033
GCUGUCACCGGUGCUUGGUACGUUAUAUUCAGCCGGUCUGAUGAGUCUGAAUGGAGACGAAACAGC [GAAUGG] | 0.297 ± 0.079 | 1.89 ± 0.013 | 0.386 ± 0.37 | 2.03 ± 0.019
GCUGUCACCGGUGCUUGGUACGUUAUAUUCAGCCGGUCUGAUGAGUCUUAAUGGAGACGAAACAGC [UAAUGG] | 0.152 ± 0.043 | 1.601 ± 0.011 | 0.399 ± 0.18 | 1.923 ± 0.0091
GCUGUCACCGGUGCUUGGUACGUUAUAUUCAGCCGGUCUGAUGAGUCUAAAUGGAGACGAAACAGC [AAAUGG] | 0.445 ± 0.096 | 1.87 ± 0.0028 | 0.499 ± 0.072 | 2 ± 0.031
GCUGUCACCGGUGCUUGGUACGUUAUAUUCAGCCGGUCUGAUGAGUCUUAAUGUAGACGAAACAGC [UAAUGU] | 0.615 ± 0.038 | 1.896 ± 0.0068 | 0.695 ± 0.092 | 2 ± 0.055
GCUGUCACCGGUGCUUGGUACGUUAUAUUCAGCCGGUCUGAUGAGUCUCAAUUAAGACGAAACAGC [CAAUUA] | 0.413 ± 0.065 | 1.963 ± 0.016 | 0.429 ± 0.07 | 1.989 ± 0.015
GCUGUCACCGGUGCUUGGUACGUUAUAUUCAGCCGGUCUGAUGAGUCUGAAUUAAGACGAAACAGC [GAAUUA] | 0.508 ± 0.088 | 2.0059 ± 0.0002 | 0.572 ± 0.15 | 2.03 ± 0.031
GCUGUCACCGGUGCUUGGUACGUUAUAUUCAGCCGGUCUGAUGAGUCUCAAUUCAGACGAAACAGC [CAAUUC] | -0.0653 ± 0.041 | 2.019 ± 0.012 | -0.136 ± 0.18 | 1.998 ± 0.016
GCUGUCACCGGUGCUUGGUACGUUAUAUUCAGCCGGUCUGAUGAGUCUAAAUUCAGACGAAACAGC [AAAUUC] | 0.629 ± 0.14 | 2.03 ± 0.0039 | 0.471 ± 0.059 | 2.018 ± 0.016
GCUGUCACCGGUGCUUGGUACGUUAUAUUCAGCCGGUCUGAUGAGUCUGAAUUGAGACGAAACAGC [GAAUUG] | 0.416 ± 0.035 | 1.928 ± 0.0066 | 0.46 ± 0.014 | 2 ± 0.066
GCUGUCACCGGUGCUUGGUACGUUAUAUUCAGCCGGUCUGAUGAGUCUUAAUUGAGACGAAACAGC [UAAUUG] | 0.377 ± 0.016 | 1.794 ± 0.0071 | 0.456 ± 0.012 | 1.972 ± 0.017
GCUGUCACCGGUGCUUGGUACGUUAUAUUCAGCCGGUCUGAUGAGUCUAAAUUGAGACGAAACAGC [AAAUUG] | 0.0771 ± 0.044 | 1.921 ± 0.0078 | 0.102 ± 0.18 | 2.02 ± 0.061
GCUGUCACCGGUGCUUGGUACGUUAUAUUCAGCCGGUCUGAUGAGUCUAAAUUUAGACGAAACAGC [AAAUUU] | 0.415 ± 0.0088 | 2.053 ± 0.0076 | 0.218 ± 0.093 | 2.05 ± 0.039
GCUGUCACCGGUGCUUGGUACGUUAUAUUCAGCCGGUCUGAUGAGUCUCACAAAAGACGAAACAGC [CACAAA] | 0.458 ± 0.03 | 1.981 ± 0.014 | 0.462 ± 0.16 | 1.99 ± 0.033
GCUGUCACCGGUGCUUGGUACGUUAUAUUCAGCCGGUCUGAUGAGUCUGACAAAAGACGAAACAGC [GACAAA] | 0.367 ± 0.089 | 1.974 ± 0.0039 | 0.306 ± 0.081 | 2.007 ± 0.019
GCUGUCACCGGUGCUUGGUACGUUAUAUUCAGCCGGUCUGAUGAGUCUUACAAAAGACGAAACAGC [UACAAA] | 0.165 ± 0.11 | 1.9485 ± 0.00073 | 0.179 ± 0.031 | 1.99 ± 0.019
GCUGUCACCGGUGCUUGGUACGUUAUAUUCAGCCGGUCUGAUGAGUCUAACAAAAGACGAAACAGC [AACAAA] | 0.414 ± 0.011 | 1.967 ± 0.017 | 0.365 ± 0.15 | 1.99 ± 0.021
